# T1: human GIP receptor (human, UniProt P48546 22-466)
# T1 sequence (looked up): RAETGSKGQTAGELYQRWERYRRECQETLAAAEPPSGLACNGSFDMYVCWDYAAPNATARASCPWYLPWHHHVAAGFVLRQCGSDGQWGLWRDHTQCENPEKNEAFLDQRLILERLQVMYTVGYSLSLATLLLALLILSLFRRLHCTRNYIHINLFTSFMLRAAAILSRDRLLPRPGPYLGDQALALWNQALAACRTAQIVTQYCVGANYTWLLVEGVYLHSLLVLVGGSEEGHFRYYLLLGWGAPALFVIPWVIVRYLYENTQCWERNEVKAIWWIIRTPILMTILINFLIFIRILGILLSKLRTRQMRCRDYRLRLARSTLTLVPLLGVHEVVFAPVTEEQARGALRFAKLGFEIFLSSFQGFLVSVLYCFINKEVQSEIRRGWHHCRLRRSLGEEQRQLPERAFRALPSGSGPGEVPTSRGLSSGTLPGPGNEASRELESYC
# Molecular target: T1, human GIP receptor
# Experiment: cell-based or functional assay
Binder,cAMP antagonism,cAMP antagonism % inhib,cAMP antagonism log
"TFISDYKIAMDKIHQQDFVNWLLAQKGKKNDWKHNI (HELM PEPTIDE1{T.F.I.S.D.Y.K.I.A.M.D.K.I.H.Q.Q.D.F.V.N.W.L.L.A.Q.K.G.K.K.N.D.W.K.H.N.I}|PEPTIDE2{[O=C(O)CCCCCCCCCCCCCCC(=O)[*:2]].[gGlu]}$PEPTIDE1,PEPTIDE2,7:R3-2:R2$$$V2.0; N-terminus assumed; SMILES CC[C@H](C)[C@H](NC(=O)[C@H](CC(N)=O)NC(=O)[C@H](Cc1c[nH]cn1)NC(=O)[C@H](CCCCN)NC(=O)[C@H](Cc1c[nH]c2ccccc12)NC(=O)[C@H](CC(=O)O)NC(=O)[C@H](CC(N)=O)NC(=O)[C@H](CCCCN)NC(=O)[C@H](CCCCN)NC(=O)CNC(=O)[C@H](CCCCN)NC(=O)[C@H](CCC(N)=O)NC(=O)[C@H](C)NC(=O)[C@H](CC(C)C)NC(=O)[C@H](CC(C)C)NC(=O)[C@H](Cc1c[nH]c2ccccc12)NC(=O)[C@H](CC(N)=O)NC(=O)[C@@H](NC(=O)[C@H](Cc1ccccc1)NC(=O)[C@H](CC(=O)O)NC(=O)[C@H](CCC(N)=O)NC(=O)[C@H](CCC(N)=O)NC(=O)[C@H](Cc1c[nH]cn1)NC(=O)[C@@H](NC(=O)[C@H](CCCCN)NC(=O)[C@H](CC(=O)O)NC(=O)[C@H](CCSC)NC(=O)[C@H](C)NC(=O)[C@@H](NC(=O)[C@H](CCCCNC(=O)CC[C@H](NC(=O)CCCCCCCCCCCCCCC(=O)O)C(=O)O)NC(=O)[C@H](Cc1ccc(O)cc1)NC(=O)[C@H](CC(=O)O)NC(=O)[C@H](CO)NC(=O)[C@@H](NC(=O)[C@H](Cc1ccccc1)NC(=O)[C@@H](N)[C@@H](C)O)[C@@H](C)CC)[C@@H](C)CC)[C@@H](C)CC)C(C)C)C(=O)O) [AT461]",23 nM,100%,-7.6 log M
"TFISDYKIAMDKIHQQDFVNWLLAQKGKKNDWKHNIT (HELM PEPTIDE1{T.F.I.S.D.Y.K.I.A.M.D.K.I.H.Q.Q.D.F.V.N.W.L.L.A.Q.K.G.K.K.N.D.W.K.H.N.I.T}|PEPTIDE2{[O=C(O)CCCCCCCCCCCCCCC(=O)[*:2]].[gGlu]}$PEPTIDE1,PEPTIDE2,7:R3-2:R2$$$V2.0; N-terminus assumed; SMILES CC[C@H](C)[C@H](NC(=O)[C@H](CCCCNC(=O)CC[C@H](NC(=O)CCCCCCCCCCCCCCC(=O)O)C(=O)O)NC(=O)[C@H](Cc1ccc(O)cc1)NC(=O)[C@H](CC(=O)O)NC(=O)[C@H](CO)NC(=O)[C@@H](NC(=O)[C@H](Cc1ccccc1)NC(=O)[C@@H](N)[C@@H](C)O)[C@@H](C)CC)C(=O)N[C@@H](C)C(=O)N[C@@H](CCSC)C(=O)N[C@@H](CC(=O)O)C(=O)N[C@@H](CCCCN)C(=O)N[C@H](C(=O)N[C@@H](Cc1c[nH]cn1)C(=O)N[C@@H](CCC(N)=O)C(=O)N[C@@H](CCC(N)=O)C(=O)N[C@@H](CC(=O)O)C(=O)N[C@@H](Cc1ccccc1)C(=O)N[C@H](C(=O)N[C@@H](CC(N)=O)C(=O)N[C@@H](Cc1c[nH]c2ccccc12)C(=O)N[C@@H](CC(C)C)C(=O)N[C@@H](CC(C)C)C(=O)N[C@@H](C)C(=O)N[C@@H](CCC(N)=O)C(=O)N[C@@H](CCCCN)C(=O)NCC(=O)N[C@@H](CCCCN)C(=O)N[C@@H](CCCCN)C(=O)N[C@@H](CC(N)=O)C(=O)N[C@@H](CC(=O)O)C(=O)N[C@@H](Cc1c[nH]c2ccccc12)C(=O)N[C@@H](CCCCN)C(=O)N[C@@H](Cc1c[nH]cn1)C(=O)N[C@@H](CC(N)=O)C(=O)N[C@H](C(=O)N[C@H](C(=O)O)[C@@H](C)O)[C@@H](C)CC)C(C)C)[C@@H](C)CC) [AT462]",37 nM,85%,-7.4 log M

# — patent US20220298218A1 (ANTAG THERAPEUTICS, published 2022)
